From the supplement of paper PMC10266784

B1: library; numbered along this chain (parent)
chain: MAAAAAAAAEQQSSNGPVKKSMREKAVERRSVNKEHNSNFKAGYIPIDEDRLHKTGLRGRKGNLAICVIILLFILAVINLIITLVIWAVIRIGPNGCDSMEFHESGLLRFKQVSDMGVIHPLYKSTVGGRRNENLVITGNNQPIVFQQGTTKLSVENNKTSITSDIGMQFFDPRTQNILFSTDYETHEFHLPSGVKSLNVQKASTERITSNATSDLNIKVDGRAIVRGNEGVFIMGKTIEFHMGGNMELKAENSIILNGSVMVSTTRLPSSSSGDQLGSGDWVRYKLCMCADGTLFKVQVTSQNMGCQISDNPCGNTH

Variants of: B1
Assay: SGCB cell-surface expression functional score (HA stain, bin4 vs bin1, normalised to synonymous) (log10 ratio); higher = more cell-surface SGCB (functional)
In short: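 HEK293 cells stably expressing alpha-, gamma- and delta-sarcoglycan received codon-saturation libraries of HA-tagged, YFP-fused human beta-sarcoglycan by lentiviral transduction at MOI <0.1, performed in duplicate. Cells positive for YFP were sorted after 72 hours and cultured for 5–7 days, then stained on ice with Alexa Fluor 647 anti-HA and fixed. Fixed cells were sorted into four 5% intensity bins and amplicon-sequenced, and the log ratio of highest-bin to lowest-bin variant frequency, as a median over codons and transductions, gives the functional score. Per section, synonymous variants were scaled to mean 0, SD 0.5.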

Variant | SGCB cell-surface expression functional score (log10)
T150E | -0.57
T150Y | 0
T150H | 0
T150W | 1.1
T150G | -0.22
T150I | 0.04
T150D | 0.59
T150F | -0.59
T150K | -0.14
T150C | 0.25
T150A | -0.2
T150N | 0.07
T150S | -0.15
T150R | -0.26
T150L | -0.19
T150Q | -0.12
T150V | -0.25
T150M | -0.99
T150P | -0.37
Q148P | -1.36
Q148R | 0.02
Q148A | 0.12
Q148F | -0.38
Q148K | -0.27

Variant | SGCB cell-surface expression functional score (log10)
Q148C | 0.39
Q148L | -0.18
Q148S | 0.42
Q148G | 0.33
Q148E | -0.58
Q148D | -0.54
Q148I | -0.28
Q148W | 0.01
Q148V | 0.28
Q148Y | -0.25
Q148H | -0.24
Q148T | 0.08
Q148N | -1.26
G149C | -0.49
G149D | -0.25
G149S | -0.12
G149L | -0.34
G149Y | -0.57
G149A | -0.43
G149T | -0.75
G149Q | -0.01
G149W | -0.54
G149N | 0.19
G149V | -0.88

Variant | SGCB cell-surface expression functional score (log10)
G149I | -0.64
G149F | -0.45
G149H | -0.28
G149K | -0.63
G149P | -1.17
G149E | -0.93
G149R | -0.54
G149M | -0.18
T151Y | -1
T151F | -1
T151W | -1.19
T151S | 0.27
T151R | -1.06
T151N | -0.56
T151I | -0.82
T151P | -0.64
T151V | -0.15
T151A | -0.08
T151E | -1.31
T151L | -1.22
T151D | -1.17
T151K | -0.7
T151M | -1.13
T151Q | -0.98

Variant | SGCB cell-surface expression functional score (log10)
T151C | -0.22
T151H | -1.24
T151G | -0.94
S154L | -0.22
S154E | -0.33
S154P | -1.03
S154I | 0
S154G | -0.24
S154D | 0.2
S154R | 0.01
S154Y | -0.16
S154A | 0.26
S154C | 0.11
S154T | -0.08
S154K | 0.55
S154V | 0.16
S154F | -0.49
S154W | -0.21
S154H | -0.24
S154N | -0.3
S154M | 0.54
S154Q | -0.7
Q147T | -0.47
Q147S | 0.16

Variant | SGCB cell-surface expression functional score (log10)
Q147W | 0.33
Q147V | 0.26
Q147Y | -0.42
L153H | -1.03
L153I | -0.17
L153P | -1.07
L153K | -1.12
L153C | -0.34
L153V | -0.65
L153G | -0.65
L153M | 0.18
L153N | -1.69
L153R | -1.23
L153T | -0.99
L153Y | -1.24
L153F | -0.26
L153A | -1.08
L153D | -1.44
L153W | -1.15
L153Q | -1.65
L153S | -1.03
L153E | -0.79
V155D | -0.85
V155E | -0.74

Variant | SGCB cell-surface expression functional score (log10)
V155L | 0.18
V155T | -1.02
V155S | -1.06
V155R | -1.45
V155M | 0.02
V155F | -0.64
V155A | -0.56
V155I | 0.29
V155Q | -1.48
V155G | -1.18
V155N | -1.38
V155C | -0.76
V155P | -1.4
V155Y | -1.9
V155H | -1.51
V155W | -1.19
V155K | -1.53
E156A | -0.03
E156K | -0.6
E156F | -0.1
E156L | -0.43
E156N | -0.23
E156M | -0.14
E156H | -0.39

Variant | SGCB cell-surface expression functional score (log10)
E156I | -0.63
E156D | -0.04
E156G | -0.23
E156C | 0.01
K152S | -0.23
K152L | -0.53
K152T | -0.04
K152E | -0.38
K152R | -0.22
K152G | -0.57
K152N | -0.11
K152V | 0.52
K152I | 0.14
K152D | -0.66
K152M | -0.19
K152W | 0.3
K152Y | -0.59
K152A | 0
K152F | 0.02
K152H | -0.48
K152C | 0.03
K152Q | -0.46
K152P | -0.94
